Columns and labels:
[1] = target: T1, 牛血清白蛋白(BSA) (bovine, UniProt P02769 25-607); assay: ELISA, BSA coated at 1 μg/ml, anti-His detection, OD450
T1 construct: Control antigen of the specificity ELISA

[2] = target: T2, IL-17A重组蛋白 (UniProt Q16552 24-155, limits assumed); assay: BLI (Fortebio)
T2 construct: also called 重组蛋白IL-17A; IL-17A抗原
T2 sequence (looked up): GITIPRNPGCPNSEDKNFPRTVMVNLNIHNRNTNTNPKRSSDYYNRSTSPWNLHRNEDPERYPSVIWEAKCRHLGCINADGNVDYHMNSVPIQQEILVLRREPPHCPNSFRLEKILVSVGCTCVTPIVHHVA

T1 sequence (P02769 25-607 limits assumed): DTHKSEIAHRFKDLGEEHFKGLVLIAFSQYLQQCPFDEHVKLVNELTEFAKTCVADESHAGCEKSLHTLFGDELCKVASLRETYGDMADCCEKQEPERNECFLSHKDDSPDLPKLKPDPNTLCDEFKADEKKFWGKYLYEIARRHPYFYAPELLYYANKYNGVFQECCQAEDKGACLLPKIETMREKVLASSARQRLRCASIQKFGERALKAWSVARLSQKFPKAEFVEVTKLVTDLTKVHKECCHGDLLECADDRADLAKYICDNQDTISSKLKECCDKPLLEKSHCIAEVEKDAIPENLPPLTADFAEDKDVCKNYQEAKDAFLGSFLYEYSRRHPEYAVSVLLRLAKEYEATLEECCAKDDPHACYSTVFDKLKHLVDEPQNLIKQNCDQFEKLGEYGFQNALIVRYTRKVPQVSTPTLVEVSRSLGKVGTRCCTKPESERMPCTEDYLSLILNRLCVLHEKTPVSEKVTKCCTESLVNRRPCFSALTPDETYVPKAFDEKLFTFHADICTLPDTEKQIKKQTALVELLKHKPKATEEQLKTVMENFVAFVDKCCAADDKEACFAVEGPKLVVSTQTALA

B1: 全人源抗IL-17A单链抗体No.34 (scFv)
scFv: MQVQLVQSGAEVKPPGASVKVSCKASGYTFTTHKIQWVRQAPGQRLEWMGWINTDKGDTKYSQKFQGRVTITSDTSASTAFMDLSSLRSEDTAVYYCARDGEGYAPFGMDVWGQGTTVTVSSGGGGSGGGGSGGGGSDIRLTQSPPSLSASVGDRVTITCRASQTIGSHLNWYQQKPGKAPKLLIYAASSLQSGVPSRFSGSGSGTDFTLTISSLQPEDFATYYCQQSHSGLTFGGGTKVDIK
notes: also called anti-IL-17A scFv No.34; Anti-IL-17A scFv No.34
- binding result [1]: no binding (tested: 0.1μg/ml)
- Kd [2]: 110 nM

— patent CN115819579A (UNIV ZHEJIANG, dated 2023)
